Data taken from paper PMC6930080.

Target: ATP synthase subunit α (Euglena gracilis)
Assay: cryo-EM structure; native ATP synthase dimer with bound IF1, co-purified as one complex from E. gracilis mitochondria; 25 mM HEPES/KOH pH 7.5, 25 mM KCl, 15 mM MgOAc2, 2 mM DTT, 0.05% β-DDM; maps: membrane region 2.82 Å, F1/c-ring rotational states 1-3 3.04, 3.14 and 3.92 Å, rotor 3.3 Å, peripheral stalk tip 3.82 Å, consensus dimer 4.32 Å

percent of particles of rotational state 3 that contain IF1: 34%
Substance: ATPase inhibitory factor 1 (IF1) (natural protein)
